Measured values published in patent US20130022605A1.

Molecular target: hen egg lysozyme (hen) (UniProt P00698)
Assay: ELISA on HEL at 3 mg/ml, detection with 9e10 and anti mouse IgG-HRP

Sequence of hen egg lysozyme (hen) (P00698 19-147): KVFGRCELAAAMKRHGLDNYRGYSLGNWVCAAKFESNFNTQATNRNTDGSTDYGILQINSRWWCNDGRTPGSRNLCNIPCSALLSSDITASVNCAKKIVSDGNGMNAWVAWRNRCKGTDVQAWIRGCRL

ELISA signal (background): 0.069
B1: VH Cκ chain expressed alone (TAR2-5 Cκ) (protein, not shown: small tags and cut ends)
chain: EVQLLESGGGLVQPGGSLRLSCAASGFTFDLYNMFWVRQAPGKGLEWVSFISQTGRLTWYADSVKGRFTISRDNSKNTLYLQMNSLRAEDTAVYYCAKTLEDFDYWGQGTLVTVSS
